# Results as given in publication PMC7308313.
# Tested on: rLDHA (Homo sapiens)
# Experiment: SPR
# Details: His-tag pull-down: protein on beads in 50 mM Na3PO4, 300 mM NaCl, 0.01% Tween-20, pH 8.0, RNA binding 2 h in 3.25 mM Na3PO4, 70 mM NaCl
substance,measurement,value
HULC lncRNA (in vitro transcribed),Kd,29 nM
